{"source": "paper PMC8221637", "about": "(Science Advances, 2021)", "biological_target": "the molecule itself", "test": "SEC"}
{"protein": "recombinant His-PIPKIγ (enzyme) MELEVPDEAESAEAGAVPSEAAWAAESGAAAGLAQKKAAPTEVLSMTAQPGPGHGKKLGHRGVDASGETTYKKTTSSTLKGAIQLGIGYTVGHLSSKPERDVLMQDFYVVESIFFPSEGSNLTPAHHFQDFRFKTYAPVAFRYFRELFGIRPDDYLYSLCNEPLIELSNPGASGSLFYVTSDDEFIIKTVMHKEAEFLQKLLPGYYMNLNQNPRTLLPKFYGLYCVQSGGKNIRVVVMNNILPRVVKMHLKFDLKGSTYKRRASKKEKEKSFPTYKDLDFMQDMPEGLLLDADTFSALVKTLQRDCLVLESFKIMDYSLLLGVHNIDQHERERQAQGAQSTSDEKRPVGQKALYSTAMESIQGGAARGEAIESDDTMGGIPAVNGRGERLLLHIGIIDILQSYRFIKKLEHTWKALVHDGDTVSVHRPSFYAERFFKFMSNTVFRKNSSLKSSPSKKGRGGALLAVKPLGPTAAFSASQIPSEREEAQYDLRGARSYPTLEDEGRPDLLPCTPPSFEEATTASIATTLSSTSLSIPERSPSETSEQPRYRRRTQSSGQDGRPQEEPPAEEDLQQITVQVEPACSVEIVVPKEEDAGVEASPAGASAAVEVETASQASDEEGAPASQASDEEDAPATDIYFFTDGRYWIYSPRHRRLRAVTLSASGTPTDERSWVYSPLHYSAQAPPASDGESDT", "values": [{"measurement": "stoichiometry N", "result": 2}]}
